The text below walks through data of article PMC7402283, “Characterizing the Fused TvG6PD::6PGL Protein from the Protozoan Trichomonas vaginalis, and Effects of the NADP^+ Molecule on Enzyme Stability” (International Journal of Molecular Sciences, 2020).

Data set [1] addresses T1, TvG6PD::6PGL (Trichomonas vaginalis, UniProt A2EC78).
T1 construct: gene TVAG_414060; full-length fused protein, 716 aa, G6PD N-terminal (1-483) and 6PGL C-terminal, 81,692 Da; pET3a-HisTEV, N-terminal His6 tag removed by TEV protease; E. coli BL21(DE3) zwf-deleted; native tetramer
T1 sequence (A2EC78 1-716): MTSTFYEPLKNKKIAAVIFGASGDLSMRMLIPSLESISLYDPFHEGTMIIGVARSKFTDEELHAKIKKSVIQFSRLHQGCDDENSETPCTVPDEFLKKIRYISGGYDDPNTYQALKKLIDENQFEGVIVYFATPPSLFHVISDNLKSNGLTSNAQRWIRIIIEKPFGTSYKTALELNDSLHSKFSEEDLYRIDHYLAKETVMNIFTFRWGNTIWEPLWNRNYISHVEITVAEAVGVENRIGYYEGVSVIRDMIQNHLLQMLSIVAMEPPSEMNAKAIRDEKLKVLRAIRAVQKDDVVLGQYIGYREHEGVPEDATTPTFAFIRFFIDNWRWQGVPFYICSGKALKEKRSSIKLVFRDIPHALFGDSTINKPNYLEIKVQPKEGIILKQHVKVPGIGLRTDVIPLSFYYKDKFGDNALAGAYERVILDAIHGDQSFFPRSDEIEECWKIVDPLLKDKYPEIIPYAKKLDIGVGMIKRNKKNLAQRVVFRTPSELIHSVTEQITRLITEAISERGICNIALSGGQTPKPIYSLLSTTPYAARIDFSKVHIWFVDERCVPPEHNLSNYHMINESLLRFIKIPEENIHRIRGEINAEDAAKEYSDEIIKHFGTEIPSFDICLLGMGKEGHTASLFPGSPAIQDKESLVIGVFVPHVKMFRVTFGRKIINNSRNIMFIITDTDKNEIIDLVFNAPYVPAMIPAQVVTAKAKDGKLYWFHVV
The data set can be described thus: intrinsic tryptophan fluorescence quenching titration, excitation […] nm. Type of data set: binding.

Data set [2] addresses fused glucose-6-phosphate dehydrogenase-phosphogluconolactonase protein from Trichomonas vaginalis (TvG6PD::6PGL) (Trichomonas vaginalis). In words: SEC; Sephacryl 400 (16/60) gel filtration column, 50 mM phosphate buffer pH 7.35, flow 0.3 mL/min, calibrated with Bio-Rad gel filtration standards; single peak at 59.9 mL; no monomer, dimer or larger aggregates seen. A general note: SEC sorts molecules by how far they enter the pores of the column.

Substrate in data set [3]: O=P(O)(O)OC[C@H]1OC(O)[C@H](O)[C@@H](O)[C@@H]1O
In words: purified protein. The settings on record: NADP+ fixed at 150 uM, pH 8.0, apparent Km. Type of data set: biochemical, Trichomonas vaginalis.

Substrate in data set [4]: NC(=O)c1ccc[n+]([C@@H]2O[C@H](COP(=O)(O)OP(=O)(O)OC[C@H]3O[C@@H](n4cnc5c(N)ncnc54)[C@H](OP(=O)(O)O)[C@@H]3O)[C@@H](O)[C@H]2O)c1
In words: purified protein. The note with it: G6P fixed at 1 mM, pH 8.0, apparent Km, catalytic site. Type of data set: biochemical, Trichomonas vaginalis.

Broadly, the Kd is the free concentration of one partner at which half of the binding sites on the other are occupied at equilibrium, for simple one-to-one binding. As a reminder, the stoichiometry N is a count of units in the complex or per binding partner. Usually Km stands for the substrate concentration at which the rate is half of its maximum. The term kcat denotes the number of substrate molecules converted per active site and unit of time at saturation.

Consider `NC(=O)c1ccc[n+]([C@@H]2O[C@H](COP(=O)(O)OP(=O)(O)OC[C@H]3O[C@@H](n4cnc5c(N)ncnc54)[C@H](OP(=O)(O)O)[C@@H]3O)[C@@H](O)[C@H]2O)c1` [NADP^+], for which binding in data set [1] was put at a Kd of 31 nM.

In the case of “fused glucose-6-phosphate dehydrogenase-phosphogluconolactonase protein from Trichomonas vaginalis (TvG6PD::6PGL) (enzyme)”, the stoichiometry N in data set [2] is 4.

B1: TvG6PD::6PGL (Trichomonas vaginalis G3) (protein)
chain: T1 sequence (A2EC78 1-716)
notes: full-length fused protein, 716 aa, G6PD N-terminal (1-483) and 6PGL C-terminal, 81,692 Da; pET3a-HisTEV, N-terminal His6 tag removed by TEV protease; E. coli BL21(DE3) zwf-deleted; native tetramer
Regarding B1, the Michaelis constant (Km) stood at 210 µM in data set [3] and 27 µM in data set [4]. Besides, the turnover number (kcat) in data set [3] and in data set [4] was 147 s⁻¹ in each case.
